Article PMC10425842

Columns and labels:
[1] = molecular target: UBR5^ΔSBB2 (UBR5 mutant with an SBB2 domain deletion) (human) (UniProt O95071); test: mass photometry
[2] = molecular target: UBR5^ΔSBB2 (UBR5 mutant with an SBB2 domain deletion) (human) (UniProt O95071); test: cryo-EM 2D classification

stoichiometry N [1]: 2
stoichiometry N [2]: 2
Substance: UBR5^ΔSBB2 (UBR5 mutant with an SBB2 domain deletion) (from UniProt O95071 1-2799) (enzyme)
